From patent US20210246166A1 (Bayer, published 2021)
Bridge positions count the residues as written; N and C are the ends. Ends that are not written are not given here.

T1: Recombinant rat MASP1 enzyme (fragment corresponding to amino acids 302-704, C-terminal His Tag) (rat, UniProt Q8CHN8 302-704)
T1 sequence: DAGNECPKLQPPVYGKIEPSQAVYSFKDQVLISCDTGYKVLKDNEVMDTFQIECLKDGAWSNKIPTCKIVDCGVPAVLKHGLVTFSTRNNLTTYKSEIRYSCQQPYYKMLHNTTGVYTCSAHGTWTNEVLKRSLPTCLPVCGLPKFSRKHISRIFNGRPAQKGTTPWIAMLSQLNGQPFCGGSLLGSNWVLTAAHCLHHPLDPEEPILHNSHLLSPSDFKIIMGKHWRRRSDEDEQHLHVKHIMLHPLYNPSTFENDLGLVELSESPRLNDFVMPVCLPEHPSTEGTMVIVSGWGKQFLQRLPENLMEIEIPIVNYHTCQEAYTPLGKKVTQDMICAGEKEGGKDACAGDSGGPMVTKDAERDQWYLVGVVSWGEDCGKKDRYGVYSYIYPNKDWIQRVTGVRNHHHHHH


What was measured:
[1] = target: T1, Recombinant rat MASP1 enzyme (fragment …); experiment: cell-based or functional assay
[2] = target: Recombinant rat MASP2 enzyme (fragment corresponding to amino acids 296-685, C-terminal His Tag) (rat, UniProt Q9JJS8 296-685); experiment: cell-based or functional assay
Recombinant rat MASP2 enzyme (fragment corresponding to amino acids 296-685, C-terminal His Tag), sequence (Q9JJS8 other isoform, or with tags, fused parts or gaps limits assumed): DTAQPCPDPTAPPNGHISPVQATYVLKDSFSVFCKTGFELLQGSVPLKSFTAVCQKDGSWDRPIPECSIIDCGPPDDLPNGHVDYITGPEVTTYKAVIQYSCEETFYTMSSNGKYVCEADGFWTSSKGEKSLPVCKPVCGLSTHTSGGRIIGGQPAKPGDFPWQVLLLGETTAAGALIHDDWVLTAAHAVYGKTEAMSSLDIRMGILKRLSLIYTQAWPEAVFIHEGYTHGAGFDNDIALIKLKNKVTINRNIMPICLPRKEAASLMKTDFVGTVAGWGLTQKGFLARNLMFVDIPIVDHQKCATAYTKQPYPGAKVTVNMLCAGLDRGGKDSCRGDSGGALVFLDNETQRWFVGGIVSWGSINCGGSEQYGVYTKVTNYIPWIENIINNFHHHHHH

rat MASP1 IC50 [1] [nM]	rat MASP2 IC50 [2] [nM]	Binder
50.2	68.4	AICSRSLPPICIPD-OH (disulfide 3-11; N-terminus assumed; SMILES CC[C@H](C)[C@H](NC(=O)[C@H](C)N)C(=O)N[C@H]1CSSC[C@@H](C(=O)N[C@H](C(=O)N2CCC[C@H]2C(=O)N[C@@H](CC(=O)O)C(=O)O)[C@@H](C)CC)NC(=O)[C@H]([C@@H](C)CC)NC(=O)[C@@H]2CCCN2C(=O)[C@@H]2CCCN2C(=O)[C@H](CC(C)C)NC(=O)[C@H](CO)NC(=O)[C@H](CCCNC(=N)N)NC(=O)[C@H](CO)NC1=O) [AIC+SRSLPPIC+IPD-OH]
83.4	54.2	AICSRSLPPICIPD-NH2 (disulfide 3-11; N-terminus assumed; SMILES CC[C@H](C)[C@H](NC(=O)[C@H](C)N)C(=O)N[C@H]1CSSC[C@@H](C(=O)N[C@H](C(=O)N2CCC[C@H]2C(=O)N[C@@H](CC(=O)O)C(N)=O)[C@@H](C)CC)NC(=O)[C@H]([C@@H](C)CC)NC(=O)[C@@H]2CCCN2C(=O)[C@@H]2CCCN2C(=O)[C@H](CC(C)C)NC(=O)[C@H](CO)NC(=O)[C@H](CCCNC(=N)N)NC(=O)[C@H](CO)NC1=O) [AIC+SRSLPPIC+IPD-NH2]
68.6	68	GICSRSLPPICIPD-OH (disulfide 3-11; N-terminus assumed; SMILES CC[C@H](C)[C@H](NC(=O)CN)C(=O)N[C@H]1CSSC[C@@H](C(=O)N[C@H](C(=O)N2CCC[C@H]2C(=O)N[C@@H](CC(=O)O)C(=O)O)[C@@H](C)CC)NC(=O)[C@H]([C@@H](C)CC)NC(=O)[C@@H]2CCCN2C(=O)[C@@H]2CCCN2C(=O)[C@H](CC(C)C)NC(=O)[C@H](CO)NC(=O)[C@H](CCCNC(=N)N)NC(=O)[C@H](CO)NC1=O) [GIC+SRSLPPIC+IPD-OH]
